Key:
straa_mouse Strada = straa_mouse Strada (UniProt Q3UUJ4)
goga2_mouse Golga2 = goga2_mouse Golga2 (UniProt Q921M4)
goga2_mouse Golga2, sequence (Q921M4 whole entry): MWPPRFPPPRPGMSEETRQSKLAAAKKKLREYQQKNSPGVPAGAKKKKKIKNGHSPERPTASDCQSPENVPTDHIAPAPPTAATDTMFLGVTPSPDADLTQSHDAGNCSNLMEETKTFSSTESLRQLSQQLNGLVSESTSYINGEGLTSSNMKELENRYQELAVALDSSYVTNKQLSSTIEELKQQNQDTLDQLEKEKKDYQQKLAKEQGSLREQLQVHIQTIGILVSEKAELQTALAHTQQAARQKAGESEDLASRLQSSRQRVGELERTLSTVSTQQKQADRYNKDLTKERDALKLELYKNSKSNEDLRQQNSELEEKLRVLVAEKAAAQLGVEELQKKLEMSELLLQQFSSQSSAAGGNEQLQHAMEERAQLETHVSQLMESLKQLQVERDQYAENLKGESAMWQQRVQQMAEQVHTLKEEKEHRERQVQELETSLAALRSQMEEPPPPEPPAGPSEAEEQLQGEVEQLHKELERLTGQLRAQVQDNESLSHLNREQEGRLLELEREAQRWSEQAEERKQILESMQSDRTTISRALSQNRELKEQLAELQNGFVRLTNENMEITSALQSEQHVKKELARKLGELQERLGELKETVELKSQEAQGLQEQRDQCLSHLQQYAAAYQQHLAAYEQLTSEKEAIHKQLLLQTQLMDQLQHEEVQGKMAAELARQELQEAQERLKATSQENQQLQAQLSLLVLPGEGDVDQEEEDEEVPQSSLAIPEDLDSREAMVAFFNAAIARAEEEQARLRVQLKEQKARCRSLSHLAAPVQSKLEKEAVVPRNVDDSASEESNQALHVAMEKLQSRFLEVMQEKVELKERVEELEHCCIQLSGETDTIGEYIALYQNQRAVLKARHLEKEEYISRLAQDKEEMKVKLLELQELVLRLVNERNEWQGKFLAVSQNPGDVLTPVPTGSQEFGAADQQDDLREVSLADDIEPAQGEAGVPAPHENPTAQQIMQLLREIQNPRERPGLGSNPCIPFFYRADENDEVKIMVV

Serine/threonine-protein kinase 25 (Mus musculus), Q9Z2W1 K49R, sequence (Q9Z2W1 whole entry K49R): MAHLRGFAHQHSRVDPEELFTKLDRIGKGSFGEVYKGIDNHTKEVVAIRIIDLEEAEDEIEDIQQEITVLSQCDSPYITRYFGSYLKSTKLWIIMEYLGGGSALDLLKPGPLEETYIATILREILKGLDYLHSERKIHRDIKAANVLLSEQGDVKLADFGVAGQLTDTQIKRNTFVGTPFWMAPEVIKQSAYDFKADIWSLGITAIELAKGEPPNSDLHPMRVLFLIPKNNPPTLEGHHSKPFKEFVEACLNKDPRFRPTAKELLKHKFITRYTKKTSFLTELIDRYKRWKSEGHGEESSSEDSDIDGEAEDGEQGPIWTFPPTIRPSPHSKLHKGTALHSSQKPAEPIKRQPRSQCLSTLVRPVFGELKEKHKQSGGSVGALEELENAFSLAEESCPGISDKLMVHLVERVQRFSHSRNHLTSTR
straa_mouse Strada, sequence (Q3UUJ4 whole entry): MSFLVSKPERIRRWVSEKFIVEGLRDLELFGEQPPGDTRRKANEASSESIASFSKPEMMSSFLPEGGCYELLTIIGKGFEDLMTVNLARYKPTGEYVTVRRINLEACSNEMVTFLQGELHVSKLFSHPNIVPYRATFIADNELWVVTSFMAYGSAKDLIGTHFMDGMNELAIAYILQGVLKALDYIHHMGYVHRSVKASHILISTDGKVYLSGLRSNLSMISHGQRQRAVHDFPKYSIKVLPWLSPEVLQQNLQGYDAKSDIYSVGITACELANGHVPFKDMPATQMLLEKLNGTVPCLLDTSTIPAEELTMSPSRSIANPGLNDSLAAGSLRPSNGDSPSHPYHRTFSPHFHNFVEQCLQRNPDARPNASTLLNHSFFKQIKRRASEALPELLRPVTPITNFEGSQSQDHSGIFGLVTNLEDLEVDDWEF

effect of a mutation on the interaction (straa_mouse Strada): decreasing interaction | effect of a mutation on the interaction (goga2_mouse Golga2): increasing interaction
Substance: Serine/threonine-protein kinase 25 (Mus musculus), Q9Z2W1 K49R

From IntAct's records for PubMed 21111240
